Laboratory results taken from patent US20220009979A1 (Alexion, published 2022).

Molecular target: T1, Purified C3d (Quidel, San Diego, Calif.) (UniProt P01024 1002-1303, biotinylated via sulfo-NHS-LC linkage)
T1 construct: domain: C3d; also called immobilized C3d
Assay: Octet BLI; biotinylated C3d immobilized on streptavidin biosensors, construct in solution at 2 uM, 600 s association, 1200 s dissociation

T1 sequence (P01024 1002-1303 limits assumed): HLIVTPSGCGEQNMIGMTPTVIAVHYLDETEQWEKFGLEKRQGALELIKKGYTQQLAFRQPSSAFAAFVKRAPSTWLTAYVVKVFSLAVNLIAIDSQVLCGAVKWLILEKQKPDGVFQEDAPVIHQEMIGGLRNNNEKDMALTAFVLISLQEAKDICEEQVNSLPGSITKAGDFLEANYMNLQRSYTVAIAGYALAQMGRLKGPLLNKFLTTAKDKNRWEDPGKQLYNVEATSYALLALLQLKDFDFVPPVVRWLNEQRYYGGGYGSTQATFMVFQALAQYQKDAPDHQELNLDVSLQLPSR

Row | Kd | koff | kon | binding result | Binder
1 | 0.679 µM | 0.189 s⁻¹ | 278000 M⁻¹ s⁻¹ |  | Compound AQ (Fc fusion) ISCGSPPPILNGRISYYSTPIAVGTVIRYSCSGTFRLIGEKSLLCITKDKVDGTWDKPAPKCEYFNKYSSCPEPIVPGGYKIRGSTPYRHGDSVTFACKTNFSMNGQKSVWCQANNMWGPTRLPTCVSVFPGGGGSDAAVECPPCPAPPVAGPSVFLFPPKPKDTLMISRTPEVTCVVVDVSQEDPEVQFNWYVDGVEVHNAKTKPREEQFNSTYRVVSVLTVLHQDWLNGKEYKCKVSNKGLPSSIEKTISKAKGQPREPQVYTLPPSQEEMTKNQVSLTCLVKGFYPSDIAVEWESNGQPENNYKTTPPVLDSDGSFFLYSRLTVDKSRWQEGNVFSCSVMHEALHNHYTQKSLSLSLGK
2 | 0.744 µM | 0.18 s⁻¹ | 242000 M⁻¹ s⁻¹ |  | Compound AC (Fc fusion) ISCGSPPPILNGRISYYSTPIAVGTVIRYSCSGTFRLIGEKSLLCITKDKVDGTWDKPAPKCEYFNKYSSCPEPIVPGGYKIRGSTPYRHGDSVTFACKTNFSMNGQKSVWCQANNMWGPTRLPTCVSVFPGGGGSDAAVECPPCPAPPVAGPSVFLFPPKPKDTLMISRTPEVTCVVVDVSQEDPEVQFNWYVDGVEVHNAKTKPREEQFNSTYRVVSVLTVLHQDWLNGKEYKCKVSNKGLPSSIEKTISKAKGQPREPQVYTLPPSQEEMTKNQVSLTCLVKGFYPSDIAVEWESNGQPENNYKTTPPVLDSDGSFFLYSRLTVDKSRWQEGNVFSCSVMHEALHNHYTQKSLSLSLGKGGGGAGGGGAGGGAGGGGSEDCNELPPRRNTEILTGSWSDQTYPEGTQAIYKCRPGYRSLGNVIMVCRKGEWVALNPLRKCQKRPCGHPGDTPFGTFTLTGGNVFEYGVKAVYTCNEGYQLLGEINYRECDTDGWTNDIPICEVVKCLPVTAPENGKIVSSAMEPDREYHFGQAVRFVCNSGYKIEGDEEMHCSDDGFWSKEKPKCVEISCKSPDVINGSPISQKIIYKENERFQYKCNMGYEYSERGDAVCTESGWRPLPSCEEKS
3 |  |  |  | no binding (tested: 2 uM) | Compound AP (Fc fusion) VECPPCPAPPVAGPSVFLFPPKPKDTLMISRTPEVTCVVVDVSQEDPEVQFNWYVDGVEVHNAKTKPREEQFNSTYRVVSVLTVLHQDWLNGKEYKCKVSNKGLPSSIEKTISKAKGQPREPQVYTLPPSQEEMTKNQVSLTCLVKGFYPSDIAVEWESNGQPENNYKTTPPVLDSDGSFFLYSRLTVDKSRWQEGNVFSCSVMHEALHNHYTQKSLSLSLGKGGGGAGGGGAGGGAGGGGSEDCNELPPRRNTEILTGSWSDQTYPEGTQAIYKCRPGYRSLGNVIMVCRKGEWVALNPLRKCQKRPCGHPGDTPFGTFTLTGGNVFEYGVKAVYTCNEGYQLLGEINYRECDTDGWTNDIPICEVVKCLPVTAPENGKIVSSAMEPDREYHFGQAVRFVCNSGYKIEGDEEMHCSDDGFWSKEKPKCVEISCKSPDVINGSPISQKIIYKENERFQYKCNMGYEYSERGDAVCTESGWRPLPSCEEKS
